Laboratory results from publication PMC8038991, “R-catcher, a potent molecular tool to unveil the arginylome” (Cellular and Molecular Life Sciences: CMLS, 2021).
Entries after “also recorded” stand apart in the source; their conditions may differ.

Legend:
[1] = test system: R-catcher; test: R-catcher pulldown of putative arginylated ER proteins, HeLa; type: binding, human; details: 5 µM MG132 plus 100 nM TG, RA competition, Fig. 6a
Description: (§1) For small-scale R-catcher pull-down assays, 300 µg of purified R-catcher was conjugated with 120 µl of Strep-Tactin sepharose resin by incubating overnight at 4 °C. To test R-catcher’s ability to capture known arginylated proteins, such as R-BiP, R-PDI, R-nsP4 and R-RGS4, plasmids encoding Ub-X-(BiP, PDI and nsP4) or MX-RGS4 (X = Arg or Val) were transiently transfected into HEK293 cells. After 24 h, cells were treated with 10 µM MG132 and 100 nM thapsigargin for another 24 h. Cells were harvested and lysed in hypotonic buffer and 300 µg total protein was incubate with 25 µl R-catcher-sepharose resin in binding buffer (20 mM HEPES pH 7.9, 0.05% Tween 20, 10% glycerol, 0.2 M KCl, protease inhibitor and phosphatase inhibitor) for 3 h with gentle rotation at 4 °C. After three washes with binding buffer, bound proteins were dissociated with 2 × SDS sample buffer and boiling at 100 °C and subjected to immunoblotting using anti-myc or flag antibodies.
Plasmids encoding the proteins were transiently transfected to HeLa cells for 24 h and stimulated with 5 µM MG132 plus 100 nM TG for another 24 h. Cell lysates were incubated with R-catcher immobilized on tactin beads for 3 h. After wash, bound proteins were eluted with 2 × SDS sample buffer followed by boiling at 100 °C for 10 min and visualized by western blot analysis. b R-catcher pulldown assays to validate ATE1-dependent arginylation of […]1, PRDX4, FBLN1 and CLUS. Plasmids encoding […]1, PRDX4, FBLN1 and CLUS were transiently transfected into + / + and ATE1^−/− MEFs for 24 h and stimulated with 5 µM MG132 plus 100 nM TG for another 9 h. Cell lysates were subjected to R-catcher pulldown, and bound proteins were detected by western blot analysis. c R-catcher pull-down assays to evaluate if the arginylation of FBNL1, SERPINH1, CLUS and PRDX4 is induced in response to MG132 plus thapsigargin. d X-peptide pulldown assays to confirm no interaction of R-catcher with Nt-Ala19 of SERPINH1 peptides and Nt-Trp38 of PRDX4 peptides. X-peptides where X is A19 (SignalP predicted P1’ site), E20 (next possible P1’ site predicted by PrediSi) or R19 (Arginylated form of Glu) for SERPINH1 and W38 (SignalP predicted P1’ site), E39 (next possible P1’ site predicted by PrediSi) or R38 (Arginylated form) for PRDX4. Biotinylated X-peptides immobilized on streptavidin agarose beads were incubated with affinity-purified GST-ZZ ([…]). Bound GST-ZZ (N132D) was detected by immunoblotting. e Identification of arginylated sites employing mutational analysis. Predicted P1’ sites of SERPINH1, PRDX4, CLUS and FBLN1 were substituted to Gly, and the inhibitory effect of the mutation on binding with R-catcher was examined by performing R-catcher pulldown assays

[2] = test system: R-catcher; test: R-catcher pulldown in +/+ and ATE1-/- MEFs; type: binding; details: +/+ versus ATE1-/- MEFs, MG132 plus TG, 9 h, Fig. 6b
Description: as §1
(§2) Plasmids encoding the proteins were transiently transfected to HeLa cells for 24 h and stimulated with 5 µM MG132 plus 100 nM TG for another 24 h. Cell lysates were incubated with R-catcher immobilized on tactin beads for 3 h. After wash, bound proteins were eluted with 2 × SDS sample buffer followed by boiling at 100 °C for 10 min and visualized by western blot analysis. b R-catcher pulldown assays to validate ATE1-dependent arginylation of […]1, PRDX4, FBLN1 and CLUS. […] Cell lysates were subjected to R-catcher pulldown, and bound proteins were detected by western blot analysis. c R-catcher pull-down assays to evaluate if the arginylation of FBNL1, SERPINH1, CLUS and PRDX4 is induced in response to MG132 plus thapsigargin. d X-peptide pulldown assays to confirm no interaction of R-catcher with Nt-Ala19 of SERPINH1 peptides and Nt-Trp38 of PRDX4 peptides. […] Bound GST-ZZ (N132D) was detected by immunoblotting. e Identification of arginylated sites employing mutational analysis. […]

[3] = test system: R-catcher; test: R-catcher pulldown of P1' site Gly mutants; type: binding, human; details: E20 SERPINH1, E30 (printed) PRDX4, D23 CLUS, D30 FBLN1 to Gly, Fig. 6e
Description: as §1, §2

[4] = Identification of arginylation sites, GelNrich and in-gel digestion LC-MS/MS
Description: Upon separation of the immunoprecipitated protein by SDS-PAGE and staining with Coomassie Blue, the corresponding protein band was excised, half of which was subjected to GelNrich and the other half to conventional in-gel digestion GelNrich is an N-terminal peptide enrichment method based on in-gel digestion. The method includes in-gel protein level labeling of primary amines using d6-acetic anhydride and post-digestion negative selection of labeled N-terminal peptide(s) using N-hydroxysuccinimide activated agarose beads. Peptides recovered from GelNrich or in-gel digestion were dried in a vacuum evaporator and reconstituted in 0.1% formic acid. An aliquot was injected from a cooled (10 °C) auto-sampler into a reversed-phase EASY-Spray column (25 cm × 75 μm, Thermo Fisher Scientific) on an Eksigent nanoLC-ultra 1D plus system (Danaher Corporation) at a flow rate of 300 nL/min. Prior to use, the column was equilibrated with 96% buffer A (0.1% formic acid in water) and 4% buffer B (0.1% formic acid in acetonitrile). The peptides were eluted with a linear gradient from 4 to 35% buffer B over 60 min and 35–80% buffer B over 2 min followed by an organic wash and aqueous re-equilibration at a flow rate of 300 nL/min with a total run time of 96 min. The HPLC system was coupled to a Q-Exactive mass spectrometer (Thermo Fisher Scientific) operated in a data-dependent acquisition (DDA) mode. Survey full-scan MS spectra (m/z 400–1800) were acquired with a resolution of 70,000. The MS/MS spectra of the 12 most intense ions from the MS1 scan with charge states 1 ~ 5 were acquired with the following options: resolution, 17,500; automatic gain control (AGC) target, 5E4; isolation width, 2.0 m/z; normalized collision energy, 27%; dynamic exclusion duration, 60 s; and ion selection threshold, 4.2E2 counts. Source ionization parameters were as follow: spray voltage, 1.9 kV; capillary temperature, 275 °C; and s-lens level, 50.0. […]

B1: PRDX4: Peroxiredoxin-4 (protein, UniProt Q13162 38-271, looked up)
Peroxiredoxin-4: WETEERPRTREEECHFYAGGQVYPGEASRVSVADHSLHLSKAKISKPAPYWEGTAVIDGEFKELKLTDYRGKYLVFFFYPLDFTFVCPTEIIAFGDRLEEFRSINTEVVACSVDSQFTHLAWINTPRRQGGLGPIRIPLLSDLTHQISKDYGVYLEDSGHTLRGLFIIDDKGILRQITLNDLPVGRSVDETLRLVQAFQYTDKHGEVCPAGWKPGSETIIPDPAGKLKYFDKLN
- binding with R-catcher, Nt-Arg dependence [1]: Nt-Arg-dependent binding with R-catcher
- capture by R-catcher, ATE1 dependence [2]: captured by R-catcher in an ATE1-dependent manner
- effect of Gly substitution of P1' site on interaction with R-catcher [3]: significantly impaired their interaction with R-catcher; also recorded: abolished their binding with R-catcher
- arginylation detected by mass spectrometry [4]: not detected

B2: FBLN1: fibulin-1 (protein, UniProt P23142 30-703, looked up)
Fibulin-1: DVLLEACCADGHRMATHQKDCSLPYATESKECRMVQEQCCHSQLEELHCATGISLANEQDRCATPHGDNASLEATFVKRCCHCCLLGRAAQAQGQSCEYSLMVGYQCGQVFQACCVKSQETGDLDVGGLQETDKIIEVEEEQEDPYLNDRCRGGGPCKQQCRDTGDEVVCSCFVGYQLLSDGVSCEDVNECITGSHSCRLGESCINTVGSFRCQRDSSCGTGYELTEDNSCKDIDECESGIHNCLPDFICQNTLGSFRCRPKLQCKSGFIQDALGNCIDINECLSISAPCPIGHTCINTEGSYTCQKNVPNCGRGYHLNEEGTRCVDVDECAPPAEPCGKGHRCVNSPGSFRCECKTGYYFDGISRMCVDVNECQRYPGRLCGHKCENTLGSYLCSCSVGFRLSVDGRSCEDINECSSSPCSQECANVYGSYQCYCRRGYQLSDVDGVTCEDIDECALPTGGHICSYRCINIPGSFQCSCPSSGYRLAPNGRNCQDIDECVTGIHNCSINETCFNIQGGFRCLAFECPENYRRSAATLQQEKTDTVRCIKSCRPNDVTCVFDPVHTISHTVISLPTFREFTRPEEIIFLRAITPPHPASQANIIFDITEGNLRDSFDIIKRYMDGMTVGVVRQVRPIVGPFHAVLKLEMNYVVGGVVSHRNVVNVHIFVSEYWF
- binding with R-catcher, Nt-Arg dependence [1]: Nt-Arg-dependent binding with R-catcher
- capture by R-catcher, ATE1 dependence [2]: captured by R-catcher in an ATE1-dependent manner
- effect of Gly substitution of P1' site on interaction with R-catcher [3]: significantly impaired their interaction with R-catcher; also recorded: abolished their binding with R-catcher
- arginylation detected by mass spectrometry [4]: the D30 residue

B3: SERPINH1: serpin H1 (protein, UniProt P50454 19-418, looked up)
Serpin H1: AEVKKPAAAAAPGTAEKLSPKAATLAERSAGLAFSLYQAMAKDQAVENILVSPVVVASSLGLVSLGGKATTASQAKAVLSAEQLRDEEVHAGLGELLRSLSNSTARNVTWKLGSRLYGPSSVSFADDFVRSSKQHYNCEHSKINFRDKRSALQSINEWAAQTTDGKLPEVTKDVERTDGALLVNAMFFKPHWDEKFHHKMVDNRGFMVTRSYTVGVMMMHRTGLYNYYDDEKEKLQIVEMPLAHKLSSLIILMPHHVEPLERLEKLLTKEQLKIWMGKMQKKAVAISLPKGVVEVTHDLQKHLAGLGLTEAIDKNKADLSRMSGKKDLYLASVFHATAFELDTDGNPFDQDIYGREELRSPKLFYADHPFIFLVRDTQSGSLLFIGRLVRPKGDKMRDEL
- binding with R-catcher, Nt-Arg dependence [1]: Nt-Arg-dependent binding with R-catcher
- capture by R-catcher, ATE1 dependence [2]: captured by R-catcher in an ATE1-dependent manner
- effect of Gly substitution of P1' site on interaction with R-catcher [3]: significantly impaired their interaction with R-catcher; also recorded: abolished their binding with R-catcher
- arginylation detected by mass spectrometry [4]: not detected
